Test results taken from the domain aggregation screens of Martell et al. (2025).

Assay: soluble fraction after stress (log2 fold change); higher = more stays soluble; pooled small domains, quantitative proteomics
Conditions: stress: 50 degC
Summary of the method: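 Pooled custom libraries of small protein domains were each held under stress at 50°C. The read-out, high-throughput quantitative proteomics, tracked how much of each protein stayed soluble. This is reported as a base-two log fold change used to indicate aggregation propensity. Higher values mean more protein remains in solution.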

Sequence	soluble fraction (log2)
HMLPGWMETKFTANVSENTKNRTLEEHVLKMLNNKESAAEFIIFLHEKMMSVSGQVFQLDSR	0.149
HMGDAVSRAYFALADDLLKGELTETVSEVLIRTRYELTSAQLQAVLHRIAQEGWAHKKPGYGWEFSAMLT	-1.83
HMHKYQVGETVYYTSPTFGRAAATGSYIVVKLLPSEGDDYQYRIKSSGEAFERVAKESQLDR	-0.734
HMSVDEVEALYLKIAEDRLEGKLPDKVSESDLMRRYGLTKAQLGAILQRIVHEGWIERTPGHGWRFLPIL	-0.259
HMEQIPEEYKKIYSLITDIPININDIAKKSLLELREVSSKLTMLELDGKVVKLPGNMYIRGDL	0.0726
HMIEGSSDWKPNMILDDGGDLTKIIHEEYQDLLDDIRGLSEETTTGVLRLYEMEKENSLAVPAINVND	0.276
HMSKPVFQTHSVRSADSATVFDVLQTLLAGTPDARIAIDPKTNAIVAWARPETQEVIAKSIMEMEG	0.0132
HMISRKIKELRLSHDLTQKDLADYLNLTPKMVSFYELGQRVPPSDIILKLAEKFHVSTDYLLGNEDRP	-0.0279
HMNDTVGMNIRRLRKERGMTQGDLADKAGIQRETISKYESNKLTPPSYNLESIEKALKVPAGTLAQ	0.0652
HMLVIMKTGASEEEIGRVIERIEGEGLSAHVSRGTERTVIGVIGQGVDVHRIAGVLGGMSGVESLVPIS	0.0405
HMARHIHFEVHVQQAGRWSIHAQFGAGQREKAIEEAKKIEKTPGFDSVKVVKETYDSDLGNHQDTTIYRGP	-0.506
HMIDLSELINKTGSAYTNLRPSGTAVIGDDRVDVVTEGTFVEKDRPVKVVAVEGQRVVVREVE	0.178
HMLTEERLQIITDTVNSRSSVTIAELSRILDVSPSTVKRDLNILAEAGKITKVRGGAIALGE	-0.0232
HMNHTIEENDRVLILDPRGKKYLITVTNRVFHTNLGKLDISELIGKNYGDKIKSHMGKNFSILKPNLIDYI	-0.0858
HMGDVPESLVEKAGHSINAKIISAWGMTETGASTMTRPQDDPERAIYSDGVVLPLMDVRVVNDAGLA	0.0119
HMGVNEGVNKLFKTIQETPGKRMPYYALATDVPEKTIERWLKQLREEGKIEFKGSAKTGGYFVIDK	0.0649
HMEDKIIVTVPGEYHLERIDRFLAANLEEDLSRSLIQRYIRENLITVNGEAVRANYKVKTDDEILITFPQ	-0.603
HMTGSETLQDIFAHLEAGTVRTALSLIPRLDAVEYEQNRQRIAELAGVRPSALDDLRKQAKREEN	0.519
HMPRELKVRDVSHQHAGHAGWREGGETHFEVDMKADVFAGTSRVAAHRMVNKVLANELASRVHALQLNLS	0.0371
HMHQAVTVTKPARLFTGPDGKGVVRSLDVGMMLYPTGEKQGMMWEVEDELGNKGWVSSTLLELS	0.207
HMAITVPEGATLSDAAVLLKQAGAVRSADAFLTRAKVFGGSTPIKAGEFVIPVQASNKDILAILQGGK	0.021
HMDIYLDDINRKILHLLSQGVKTKSLRDYIDLSMSAIEKRKKHLKDLFLIEDGKDETLLSEARKKGF	-0.672
HMKPVPPLNGTSLRDLALGYAGRYATTAARLKHYLQRKLRERGWGGEDEPDLDGLVARLVELGYVNDEVF	-0.102

Sequence	soluble fraction (log2)
HMEPMTDQQILEGFAEFKRQNPDLMNRPATQAIVNLTLPGGTPISFRSGAGAAALNQYLESIGMRAGP	0.202
HMDMRLADLIGRDGITITFMRPSGKVEIDGEIYDAVSDVGLIDKNEEVEVIKFENAQLVVTKKNKN	-0.0621
HMYLPGERMRIKITALGSNPKQGVGYLPDGMMVVVDEAATLVGRFVEIEFVKFLQTNSGRMMFAKVAT	-0.224
HMSEDAVKFRAAVEVENGLAQRNLNKNQAALILGVDRSYFTYIISGKKTPSPDMAKRIGLLLGFDWRVFYA	-2.03
HMGESFPYVAYATDSVRLRARPSSSATILTVIRKGDAVLITGADGSYKIVEYEGRKGYVVSAFLSSQET	-0.857
HMIIVMRKGATEAQVNDIVERVRAAGFGVHLSQGEERTIIGAIGGDRAVLADLNLEAAPGVERVTPIS	0.0417
HMNVDALVGQRGRVTQTFDPGLRLGRVAVGGDDWRAETTTDQPLREGDLVEVVSVESNTLIVRPIA	-0.0828
HMFTRFTVAQDGWTIGGFTAKEMAVSTAKQHAVDTGKPVTVVAHVAGGGSREAIFNSDGTNDKIWN	0.0601
HMGEQLALLERARTLLEDETLETEVQKELEMLLEDIEAARAEANATQLEDLFEELADLLFDLE	-0.0786
HMDNIEIGNRIREIRIKKNISVFELAYRTKTSQSHIYQIEGGSQNMSIELLFKIADTLETDPNTILGV	-3.78
HMDLDSGVAVLRTLMSQHNLQTDDFQNEIGGKSMVSMILNGTRKLSKNHIQALSGRFNLSPALFF	-0.962
HMLDLPVRTINGRQYYYYEVRNRETVYGLSKRLGVTREEIVRYNPSMADGLKRGAILYFPVDEFSDRI	-0.281
HMTDNSTTTIRNLKIEWLLEEIRNAVRTGVSVDAAVERISNNPFVKPPEDLLNEARIIFLQNAGQI	-0.166
HMEKKTILIPPVITVRALAEISQIPVNRLLQELIKNGVFTSINEKIDFDTAVIIGADLNLDIQLL	-0.95
HMDRENNITAGREILEKELSRLALNMKMVNLQDYAARFNVKHSDDILAGIGAGDIRPAHIVNAIAEKLT	0.144
HMTTIAQMTGPQRAAVILLVLGEDHGRTIWQEFDDDEIRIITRAMAELGTVDADEVERLMLDFVGKLSS	-2.58
HMEDNKLKNEIKNELVSHLEKPYSVEDLADALKYHGSAAFKLIVQELAILERERAVVVTHDGNFKINSS	-0.619
HMTIGIGKSLDFNTSGEKAYRIYNFKGAYVGTFKASDMTSLKNEVQKSNVKAGAYMVRSLDGHVNRLIEIK	-0.681
HMAPAGGITRQDLFAWGLMGGEGSREKRQQLKKSLGLPSHLGTSGFLDALNLIATRDQVEALLHK	-0.15
HMDYGSISFINWSIEVLSVIKTRLDRGDKIIDEVSGEKYTASSFEKFVRKNFSSYIFSQVYAEDHKK	-2.55
HMDADRLSPREREMLQFIARGQSNKEIARALELAESTVKIHVQNMLRKLNLSSRVQAAVFAVENGLG	-0.109
HMEVLPLHQVKLKYAEADTILIALKSAQSMLSPRGQLLADNRSQQIFVYDDEAHTATLIEAIKHLDQPL	-0.0429
HMFMSKTAMVAIISEADKYGLFNIPEGLSVEKTADEIFEGHIEVDFDKLKNELDFVYKNEALEKQFQEN	-0.534

Sequence	soluble fraction (log2)
HMKKERITWDERLERFAKYITENESLPYPSSKEHAWFEENKALYDAGELESVRAQSFSFLLKILRRMNLI	-0.278
HMFEYDEEEYEKLGPNADLTIKSMTDWGQSLVRKGVWSESDFEEFKIMGGTAQGLRALQKVRSYY	-0.451
HMRDPVDKDNYLGDWDKNKTYPAGYVMTFGDKNYLALQEVPAGTKPGATDPDPFWVLDTGKTLKD	-0.0888
HMTDTSFPRLGAPEEELLSFLAKWEIDAEDAHYTKFSLYYQSTGKMMRDWKATWRAWKERQSELNAQR	-1.68
HMKIDLPIWLNKKAWEAWVEYKKERKQKLTPSIIKFQLRILEKNKEDHPEIIRNSITNGWTGLFPLK	-1.27
HMRNERDRQLYAAMEKLKAEYREALYLVYFENMSYRDAAAVMAQTEKQISNLVYRGKQSLKTILEQEGF	-2.65
HMGGKWKPIILYYININSVARYSELKRFIPSINERMLTRQLRELEEDNLIERKVYPIVPPKVEYRLTEYGK	0.0177
HMNQKVRQLLSQAQAEMERKNYKQAIKLLDQALAIEPHSGELHFMKGYAWMSMGEFEKALESLYEARNYA	-0.399
HMALLKRQDEILMYLYTQNKWITGNELAQLFHVSLRTIRNDISFINTEKSNSVLSNRNKGYHIAKDFVYNE	-0.924
HMDELIKQVANYIINNRATINETAGAFGKSVSSIKKYINDADKLQRIDFELYQKVKEVQKIVELNGQI	0.144
HMKNTLDAYIRYLSNFLSRNNYPEAEDLSFINARADQAYEVFLEARRGGVDVSTAEELAMIALMQGY	-1.13
HMAVTFPYTAYATDAVRLRERPSSSADVLAVIRKGDAVLVTGTDGNYAIVDYEGKRGYVVSSFIAT	-0.317
HMSGQLTEEQVKQIVTTAVKNSSGSTLTAAEVSRIVSTAVANNLTADQVKTVVNNALAGITTDISTLKA	0.0898
HMVSRVTTPGVVGKTWQETKQILKQADLTVGSLTRDGKDVTPADGDLVTAQNPSAGQAIVRGSSVDLTFDK	0.31
HMQVTGLTAENAHRVTMIREKGTDHPPVPFHFRKEHHGTGNYVHLYGNPEDRNELHSRDFKDWEAVAFK	0.25
HMTSRFITTEEGTLYVDADGRKVSGWQTIDGSRYYFDEHGIRQSGTIEVNGETYVLDEDGVL	0.0747
HMPELPPHELLRALMVEHDIKQSELPEVGPQPVVSDVLAGKRALNLRQVAALAARFHVPMEVFT	-0.153
HMKSSTEIIYSDFLREVSNGQISEVTIQGDFVRGLFLSGSSFQTYAPKDSNLINILRDKKVRIKVHPP	-0.134
HMRTANREKRIEASVKMMKAGYPVGYIIARVFMYEGWEEDYRQLLIYLSEKIPKDVSNPITFEVIS	-0.296
HMHHIDTAWFRGKMREHRLTQEAVGQAIGLERSMVSKIIKGTVSFNARKASAWAQLLRVSESEILERVGI	-2.37
HMVVSDSAEIDKIVQDVIAANPKAIEDFKSGKTNVTGWLMGQVMKLSHGKANPKQATEILNKYLSK	0.354
HMLDKIRTYIDNSFTGVNETKKVKELKDELFENLKEKYNDQIQDGKTEQEAYNSVISGIGDLSELIESVK	0.553
HMDLAPLQTVDIAINYAKAAELAAILKSSEGGILSDRGGVTVDERTNTLLIRDTLESIDEARKTI	0.122
